Test results reported in patent publication US20110059095A1 (Regeneron, published 2011).
Where no end group is shown, it is not given here. The star is where a group is joined. Biotin = O=C1N[C@H]2[C@H](CS[C@H]2CCCCC(=O)*)N1

T1: Peptide C (human PAR-2), N-terminal biotinylated (Human)
T1 construct: also called Peptide C N-Term
T1 peptide: Biotin-GGGGSSLIGKV

T2: C-terminal biotinylated human PAR-2 peptide SEQ ID NO:876 (Ile-39 to Ala) (human, not fully specified; C-terminal biotin (K-B))
T2 construct: alanine-scan mutant
T2 peptide: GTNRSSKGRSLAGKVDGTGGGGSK

T3: Peptide I (dog PAR-2) (Dog (Canis familiaris))
T3 peptide: GTNRTSKGRSLIGKTDSS

T4: Peptide H (rabbit PAR-2) (Rabbit (Oryctolagus cuniculus))
T4 peptide: GTNKTSKGRSLIGRNTGS

T5: Peptide M (human PAR-4), unbiotinylated (Human)
T5 peptide: ESGSTGGGDDSTPSILPAP

T6: Peptide K (human PAR-1), unbiotinylated (Human)
T6 peptide: ATNATLDPRSFLLRNPND

T7: Peptide L (human PAR-3), unbiotinylated (Human)
T7 peptide: DTNNLAKPTLPIKTFRGA

T8: Peptide E (mouse PAR-2), unbiotinylated (Mouse (Mus musculus))
T8 construct: also called Peptide E No Biotin
T8 peptide: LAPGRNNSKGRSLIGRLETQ

T9: Peptide E (mouse PAR-2), N-terminal biotinylated (Mouse (Mus musculus), N-terminal biotin via G4S linker)
T9 construct: also called Peptide E N-Term
T9 peptide: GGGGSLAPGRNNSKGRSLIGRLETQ

T10: Peptide G (rat PAR-2), N-terminal biotinylated (Rat (Rattus norvegicus), N-terminal biotin via G4S linker)
T10 construct: also called Peptide G N-Term
T10 peptide: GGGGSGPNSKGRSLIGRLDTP

T11: Peptide G (rat PAR-2), C-terminal biotinylated (Rat (Rattus norvegicus), C-terminal biotin via G4S linker)
T11 construct: also called Peptide G C-Term
T11 peptide: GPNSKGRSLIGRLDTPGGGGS

T12: Peptide G (rat PAR-2), unbiotinylated (Rat (Rattus norvegicus))
T12 construct: also called Peptide G No Biotin
T12 peptide: GPNSKGRSLIGRLDTP

T13: Peptide A (human PAR-2), unbiotinylated (Human)
T13 construct: also called Peptide A No Biotin
T13 peptide: GTNRSSKGRSLIGKVDGT

B1: H4H588N (antibody, human IgG4, V domains shown)
VH: EVQLLESGGGLVQPGGSLRLSCAASGFTFSSYAMTWVRQAPGKGLYWVSAISGGRGSAYYADSVKGRFTISRDNSKNTLYLQMNSLRAEDTAVYYCAKEGDSGYDLAYWGRGTLVTVSS
VL: DIQMTQSPSSLSASVGDRVTITCRARQGISNNLAWLQQKPGKAPKSLIYAASSLQSGIPSKFSGSGSGTYFTLTISSLQPEDFATYYCQQYKSSPLTFGGGTKVEIK
notes: also called H2M588N variable regions
B2: H4H584P (antibody, human IgG4, V domains shown)
VH: QVQLVESGGGVVQPGRSLRLSCVASGFTFSRYGMHWVRQAPGKGLEWVVVISYDGINKYYADSVKGRFTISRDNSKNTVYLQMNSLRAEDTAVYYCAKGDFWSGYFDYWGQGTLVTVSS
VL: DIVMTQTPLSSPVTLGQPASISCRSSQSLVHSDGNTYLSWLHQRPGQPPRLLIYKISNRFSGVPDRFSGSGAGTDFTLQISRVEAEDVGIYYCMQATQFPTFGGGTKVEIK
notes: also called H1H584P variable regions
B3: H4H579P (antibody, human IgG4, V domains shown)
VH: QVQLVESGGGVVQPGRSLRLSCVASGFTFSRYGMHWVRQAPGKGLEWLIVISYDGINKYYADSVKGRFTISRDNSKNTVYLQMNSLRAEDTGVYYCAKGDFWSGYFDYWGQGTLVTVSS
VL: DIVMTQTPLSSPVTLGQPASISCRSSQSLVHSDGNTYLSWLHQRPGQPPRLLIYKISNRFSGVPDRFSGSGAGTDFTLQISRVEAEDVGIYYCMQGTQFPTFGGGTKVEIK
notes: also called H1H579P variable regions
B4: H4H581P (antibody, human IgG4, V domains shown)
VH: QVQLVESGGGVVQPGRSLRLSCVASGFTFSRYGIHWVRQAPGKGLEWVIVISYDGINKYYADSVKGRFTISRDNSKNTVYLQMNSLRAEDTAVYYCAKGDFWSGYFDYWGQGTLVTVSS
VL: DIVMTQTPLSSPVTLGQPASISCRSSQSLVHSDGNTYLSWLHQRPGQPPRLLIYKISNRFSGVPDRFSGSGAGTDFTLQISRVEAEDVGIYYCMQATQFPTFGGGTKVEIK
notes: also called mAb H4H581P; H1H581P variable regions
B5: H4H585P (antibody, human IgG4, V domains shown)
VH: QVQLVESGGGVVQPGRSLRLSCVASGFTFSRYGMHWVRQAPGKGLEWLIVISYDGINKYYADSVKGRFTISRDNSKNTVYLQMNSLRAEDTAVYYCAKGDFWSGYFDYWGQGTLVTVSS
VL: DIVMTQTPLSSPVTLGQPASISCRSSQSLVHSDGNTYLSWLHQRPGQPPRLLIYKISNRFSGVPDRFSGSGAGTDFTLQISRVEAEDVGIYYCMQGTQFPTFGGGTKVEIK
notes: also called H1H585P variable regions
B6: H4H583P (antibody, human IgG4, V domains shown)
VH: QVQLVESGGGVVQPGMSLRLSCTASGFTFRRYGMHWVRQAPGKGLEWVAVIWYDGSNKYYADSVKGRFTITRDNSKNTLYLQMNSLRAEDTAIYFCASEITIGDWFDPRGQGTLVTVSS
VL: AIQMTQSPSSLSASVGDRVTITCRASQGIRNDLGWFQQKPGKVPKLLIYAASTLHSGVPSRFSGSGFGTDFTLTISSLQPEDFATYYCLQDFNYPLTFGGGTKVEIK
notes: also called H1H583P variable regions

Legend:
[1] = target: T1, Peptide C (human PAR-2), N-terminal …; assay: SPR, peptide immobilized
[2] = target: T2, C-terminal biotinylated human PAR-2 …; assay: BLI Exp1
Method: In order to more particularly identify the amino acids of PAR-2 with which the PAR-2 antibodies interact, an alanine scanning study was carried out using peptides comprising the activating PAR-2 protease cleavage site.
The ability of each peptide mutant to bind to PAR-2 antibodies was measured using biolayer interferometry (Octet Red; ForteBio). Each peptide (2.5 μg/ml) was captured on streptavidin coated biosensor tips (Octet SA sensor) for 10 seconds. To measure binding and dissociation between each peptide and PAR-2 antibody, the peptide-coated biosensors were contacted with 200 nM solutions of PAR-2 antibodies for 5 minutes (binding) followed by transfer to buffer with no antibody for 10 min (dissociation). […] The results are expressed as percent binding and percent T_{1/2} relative to WT peptide (Tables 24-28).

[3] = target: full length human PAR-2 (human, UniProt P55085 26-397); assay: cell-based or functional assay
[4] = target: T3, Peptide I (dog PAR-2); assay: SPR, antibody captured
Method: (§1) Equilibrium dissociation constants (KD values) for antigen binding to selected purified PAR-2 antibodies were determined by surface kinetics using a real-time surface plasmon resonance biosensor assay. Antibody was captured on either a rabbit anti-mouse IgG polyclonal antibody (GE Healthcare, Piscataway, N.J.) surface or a goat anti-human IgG polyclonal antibody (Jackson Immuno Research Lab, West Grove, Pa.) surface created through direct amine chemical coupling to a BIACORE™ CM5 sensor chip to form a captured antibody surface. […] Antigen-antibody binding and dissociation were monitored in real time at room temperature. Kinetic analysis was performed to calculate KD and half-life of antigen/antibody complex dissociation (Table 10). For those antibodies where no T_{1/2} value is shown, steady state analysis was used to calculate the KD value. NB: no binding observed under current experimental conditions. ND: not determined.

[5] = target: T4, Peptide H (rabbit PAR-2); assay: SPR, antibody captured
Method: as §1

[6] = target: T5, Peptide M (human PAR-4), unbiotinylated; assay: SPR, antibody captured
[7] = target: T6, Peptide K (human PAR-1), unbiotinylated; assay: SPR, antibody captured
[8] = target: T7, Peptide L (human PAR-3), unbiotinylated; assay: SPR, antibody captured
[9] = target: T8, Peptide E (mouse PAR-2), unbiotinylated; assay: peptide ELISA titration; ELISA titration, bivalent IgG on peptide-coated plate
Method: (§2) Anti-PAR-2 antibodies were tested for their ability to bind to the PAR-2 peptides. Various PAR-2 Peptides (Table 3) were coated onto 96-well plates at a concentration of 2 μg/ml and incubated overnight followed by blocking in a suitable blocking agent for one hour. […] Purified anti-PAR-2 antibodies were added to the plate coated with PAR-2 peptides to a final concentration ranging from 0.2 to 2.0 μg/ml and incubated for one hour at room temperature. Detection of bound antibodies was determined with Horse-Radish Peroxidase (HRP) conjugated anti-mouse or human IgG (Jackson Immuno Research Lab, West Grove, Pa.) and developed by standard colorimetric response using tetramethylbenzidine (TMB) substrate. Absorbance was read at OD₄₅₀ for 0.1 second.
(§3) In another experiment, selected anti-PAR-2 antibodies cloned onto human IgG4 were tested for binding to unbiotinylated and biotinylated forms of PAR-2 peptides (Peptides A, E, F and G; as described above). […] Absorbance values at 450 nm were analyzed using a sigmoidal dose-response model in GraphPad Prism (GraphPad Software, Inc., La Jolla, Calif.) and EC₅₀ values were reported (Table 9). EC₅₀ values are defined as the antibody concentration required to achieve 50% maximal binding to PAR-2 peptide.

[10] = target: T9, Peptide E (mouse PAR-2), N-terminal …; assay: peptide ELISA titration
Method: as §2, §3

[11] = target: T10, Peptide G (rat PAR-2), N-terminal …; assay: peptide ELISA titration
Method: as §2, §3

[12] = target: T11, Peptide G (rat PAR-2), C-terminal …; assay: peptide ELISA titration
Method: as §2, §3

[13] = target: T12, Peptide G (rat PAR-2), unbiotinylated; assay: peptide ELISA titration
Method: as §2, §3

[14] = target: T12, Peptide G (rat PAR-2), unbiotinylated; assay: SPR, antibody captured
Method: as §1

[15] = target: T9, Peptide E (mouse PAR-2), N-terminal …; assay: SPR, peptide immobilized
[16] = target: T10, Peptide G (rat PAR-2), N-terminal …; assay: SPR, peptide immobilized
[17] = target: T13, Peptide A (human PAR-2), unbiotinylated; assay: SPR, antibody captured
[18] = target: T8, Peptide E (mouse PAR-2), unbiotinylated; assay: peptide ELISA titration; ELISA titration, antibody 13.3 nM to 0.22 pM, sigmoidal fit
Method: as §2, §3

Chain of full length human PAR-2 (P55085 26-397 G138A limits assumed): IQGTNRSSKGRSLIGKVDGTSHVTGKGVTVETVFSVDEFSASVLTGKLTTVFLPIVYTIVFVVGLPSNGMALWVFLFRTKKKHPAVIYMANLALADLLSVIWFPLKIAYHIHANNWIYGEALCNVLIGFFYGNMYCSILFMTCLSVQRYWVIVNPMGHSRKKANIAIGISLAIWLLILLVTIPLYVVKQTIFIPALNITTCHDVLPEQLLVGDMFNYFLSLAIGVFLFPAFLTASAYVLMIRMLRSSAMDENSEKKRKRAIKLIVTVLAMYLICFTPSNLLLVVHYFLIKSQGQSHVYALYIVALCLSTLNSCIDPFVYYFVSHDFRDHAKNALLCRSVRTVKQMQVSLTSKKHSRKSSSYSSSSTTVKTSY

| Binder | binding result [1] | binding result [5] | binding result [6] | binding result [7] | binding result [8] | EC50 [9] [nM] | EC50 [10] [nM] | EC50 [11] [nM] | EC50 [12] [nM] | EC50 [13] [nM] | Kd [14] [nM] | T1/2 [14] [s] | Kd [15] [nM] | Kd [16] [nM] | T1/2 [16] [min] | Kd [17] [nM] | T1/2 [17] [s] | Kd [4] [nM] | T1/2 [4] [s] | T1/2 [15] [s] | other results |
| --- | --- | --- | --- | --- | --- | --- | --- | --- | --- | --- | --- | --- | --- | --- | --- | --- | --- | --- | --- | --- | --- |
| B1 | no binding | no binding | no binding | no binding | no binding |  |  |  |  |  |  |  |  |  |  |  |  |  |  |  | % Rel Binding [2]: 92%; % Rel T1/2 [2]: 36%; IC50, NF-kB-luciferase, 10 nM Human Trypsin 1 [3]: 42.7 nM; IC50, NF-kB-luciferase, 200 nM Factor Xa [3]: 17.1 nM; IC50, NF-kB-luciferase, 750 nM Lung Tryptase [3]: 1.6 nM; binding result [4]: no binding |
| B2 | no binding | no binding | no binding | no binding | no binding | 2.15 | 0.511 | 0.012 | 0.015 | 0.013 | 246 | 7.8 | > 100 | 1.39 | 15 | 22 | 43.8 |  |  |  |  |
| B3 | no binding |  | no binding | no binding | no binding |  | 0.54 | 0.059 | 0.044 | 0.055 | 134 | 27 | 3.4 | 1.16 | 38 | 15 | 240 | 311 | 15.6 | 1200 | EC50 [18]: 0.713 nM |
| B4 |  | no binding |  |  |  | 0.029 | 0.032 | 0.019 | 0.013 | 0.02 | 40.2 | 37.8 | 1.13 | 0.354 | 62 | 9.44 | 84 | 143 | 4.2 | 1260 | Kd [1]: > 100 nM; % Rel Binding [2]: 8%; % Rel T1/2 [2]: 0.2%; IC50, NF-kB-luciferase, 10 nM Human Trypsin 1 [3]: 7.4 nM; IC50, NF-kB-luciferase, 200 nM Factor Xa [3]: 5.3 nM; IC50, NF-kB-luciferase, 750 nM Lung Tryptase [3]: 1.1 nM |
| B5 |  |  |  |  |  |  | 0.189 | 0.017 | 0.021 | 0.018 | 162 | 19.8 | > 100 | 1.36 | 35 | 8.78 | 222 | 372 | 11.4 |  | EC50 [18]: 0.308 nM |
| B6 | no binding |  | no binding | no binding | no binding | 0.019 | 0.014 | 0.015 | 0.63 | 0.012 | 530 | 4.2 | 1.68 | 1.49 | 13 | 37.1 | 22.2 | 320 | 9.6 | 660 | Kd [5]: 189 nM; T1/2 [5]: 10.2 s |
